B1: glmS ribozyme (parent)
chain: AUAAAAGCGCCAGAACUACAGAAAUGUAGUUGACGAGGAGGAGGUUUAUCGAAUUUUCGGCGGAUGCCUCCAAA

The source of these data is the supplement of paper PMC7125110.

± gives the standard error. This sample holds only a part of the variants without activity.

In this data set the parent is B1. Put plainly: self-cleavage kobs at 10000 uM GlcN6P; higher = faster cleavage; RNA array. As to conditions: with glucosamine-6-phosphate. An outline of the steps:
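A hybridised Cy3 probe tracked barcoded ribozyme variants, transcribed in situ by E. coli RNA polymerase on sequenced MiSeq chips, at 37 °C. The variants received 40 μM to 10 mM glucosamine-6-phosphate in HEPES/KCl/Mg(OAc)2 buffer. kobs came from decay fits and kcat and KM from weighted Michaelis–Menten fits.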
For the variant G9A C11U U30C A52U G62U, the “self-cleavage kobs at 10000 uM GlcN6P” value is less than 1e-05 s⁻¹.
In the case of G13U G44C U56C, the “self-cleavage kobs at 10000 uM GlcN6P” value is less than 1e-05 s⁻¹.
The figure for A39U C67G C71A is 7.84e-05 ± 1.5e-05 s⁻¹; for A33C A53G A64C it is less than 1e-05 s⁻¹; for G44A U56A G60C C68A it is less than 1e-05 s⁻¹.
For A15G U31A A36G C58U, the “self-cleavage kobs at 10000 uM GlcN6P” value is less than 1e-05 s⁻¹.
The figure for G32A C34U G51C is less than 1e-05 s⁻¹; for A12C G29C G43C it is less than 1e-05 s⁻¹.
The value for U31G C67A C71A was 0.000258 ± 6.9e-05 s⁻¹.
Take G37A G41U G59C G66U: the “self-cleavage kobs at 10000 uM GlcN6P” value is less than 1e-05 s⁻¹.
As to A12G G13U U56G C61U C68G C70A, the “self-cleavage kobs at 10000 uM GlcN6P” value was 4.15e-05 ± 1.7e-05 s⁻¹.
For the variant G29U G41U U45C C70U, the “self-cleavage kobs at 10000 uM GlcN6P” value was found to be 0.000108 ± 2.4e-05 s⁻¹.
On to G13C U31C A39C, for which the “self-cleavage kobs at 10000 uM GlcN6P” value amounted to 2.61e-05 ± 1.3e-05 s⁻¹.
The figure for C16U G32A C58A U69A is 7.78e-05 ± 1.2e-05 s⁻¹; for C10G C71A it is less than 1e-05 s⁻¹; for G13C U49A G60U C61A it is less than 1e-05 s⁻¹.
The figure for C16U A39G G40U is 0.0008 ± 0.00026 s⁻¹; for A12C G41A U46G it is 0.000334 ± 7.8e-05 s⁻¹; for U27G A42U it is 0.000136 ± 3e-05 s⁻¹.
For the variant G35A G37C U47C, the “self-cleavage kobs at 10000 uM GlcN6P” value is less than 1e-05 s⁻¹.
On to A39U G41C U49A C61U, for which the “self-cleavage kobs at 10000 uM GlcN6P” value is less than 1e-05 s⁻¹.
Take A6C A12C C58G: the “self-cleavage kobs at 10000 uM GlcN6P” value was less than 1e-05 s⁻¹.
Regarding A12U G13U U31C G40A G44A U56A, the “self-cleavage kobs at 10000 uM GlcN6P” value is less than 1e-05 s⁻¹.
Turning to G35U G40C A53U U54A, the “self-cleavage kobs at 10000 uM GlcN6P” value was less than 1e-05 s⁻¹.
The figure for A15G G60A is 3.03e-05 ± 1.1e-05 s⁻¹; for G13U C58U it is 6.77e-05 ± 6.2e-06 s⁻¹; for A36U G37C C50U U57A U69G it is 4.81e-05 ± 2.3e-05 s⁻¹.
On to G38A G44U A53G, for which the “self-cleavage kobs at 10000 uM GlcN6P” value was less than 1e-05 s⁻¹.
The value for A23C C68A was 5.82e-05 ± 2.4e-05 s⁻¹.
The figure for A36C U69A C70U is 6.82e-05 ± 1.5e-05 s⁻¹; for C11A U30G C67A it is 9.25e-05 ± 1.7e-05 s⁻¹; for A33C A36C C50U C68A it is less than 1e-05 s⁻¹.
Regarding A15G G41A U54A, the “self-cleavage kobs at 10000 uM GlcN6P” value was found to be 9.17e-05 ± 2.8e-05 s⁻¹.
For A15G C67A C68A, the “self-cleavage kobs at 10000 uM GlcN6P” value was 5.65e-05 ± 1.7e-05 s⁻¹.
G40U U47C G51A G59U C71U: the “self-cleavage kobs at 10000 uM GlcN6P” value is less than 1e-05 s⁻¹.
The figure for A15G C16U G29C is 0.00377 ± 0.00075 s⁻¹.
Consider G7U U47A U57G, for which the “self-cleavage kobs at 10000 uM GlcN6P” value is less than 1e-05 s⁻¹.
The value for C11A G41U G43U G44A G51C G63A was less than 1e-05 s⁻¹; that for G7C U55G U56C U69A was less than 1e-05 s⁻¹; that for G29A G32U A52G was 3.76e-05 ± 1.7e-05 s⁻¹.
Turning to G7A C10G C19A U47A G51A, the “self-cleavage kobs at 10000 uM GlcN6P” value is less than 1e-05 s⁻¹.
Consider A39G U56G C68U, for which the “self-cleavage kobs at 10000 uM GlcN6P” value turned out to be 0.00322 ± 0.0012 s⁻¹.
Take C16A G29C A39C: the “self-cleavage kobs at 10000 uM GlcN6P” value was 0.000349 ± 6.1e-05 s⁻¹.
Turning to A33C G62C C70U, the “self-cleavage kobs at 10000 uM GlcN6P” value was less than 1e-05 s⁻¹.
On to G37A A42C, for which the “self-cleavage kobs at 10000 uM GlcN6P” value was found to be 2.95e-05 ± 8.6e-06 s⁻¹.
A6C G35C A52C G66U: the “self-cleavage kobs at 10000 uM GlcN6P” value was less than 1e-05 s⁻¹.
With U49C C68A, the “self-cleavage kobs at 10000 uM GlcN6P” value is less than 1e-05 s⁻¹.
With G13A U57G, the “self-cleavage kobs at 10000 uM GlcN6P” value is 4.69e-05 ± 8.8e-06 s⁻¹.
Regarding C8G G9C G13U G37U A64G, the “self-cleavage kobs at 10000 uM GlcN6P” value is less than 1e-05 s⁻¹.
As to G35C A39C G41U U49G, the “self-cleavage kobs at 10000 uM GlcN6P” value was less than 1e-05 s⁻¹.
For the variant A14C G38U G63U C68A, the “self-cleavage kobs at 10000 uM GlcN6P” value worked out at 4.08e-05 ± 1.9e-05 s⁻¹.
For C16U G29U G40U C50U, the “self-cleavage kobs at 10000 uM GlcN6P” value was less than 1e-05 s⁻¹.
As to A14U A42G C61G, the “self-cleavage kobs at 10000 uM GlcN6P” value is less than 1e-05 s⁻¹.
Regarding G38U A64U C71U, the “self-cleavage kobs at 10000 uM GlcN6P” value is less than 1e-05 s⁻¹.
For the variant U55G C68A C71U, the “self-cleavage kobs at 10000 uM GlcN6P” value was found to be 2.99e-05 ± 1.4e-05 s⁻¹.
In the case of G37U C58G G63U, the “self-cleavage kobs at 10000 uM GlcN6P” value is less than 1e-05 s⁻¹.
The figure for A6G C34A A39G is less than 1e-05 s⁻¹; for A14U A15G G41U it is 0.000237 ± 5.3e-05 s⁻¹.
Consider U56C U57G G59U, for which the “self-cleavage kobs at 10000 uM GlcN6P” value is less than 1e-05 s⁻¹.
As for C11A A33C A42C C50G, the “self-cleavage kobs at 10000 uM GlcN6P” value was less than 1e-05 s⁻¹.
With A15U A42U C67A, the “self-cleavage kobs at 10000 uM GlcN6P” value was 0.000127 ± 3.2e-05 s⁻¹.
The figure for A33G A39U U49C C68G is less than 1e-05 s⁻¹; for C16U A33G A39U it is less than 1e-05 s⁻¹; for A15U C50U C58G it is less than 1e-05 s⁻¹.
With U30C U31G C70G, the “self-cleavage kobs at 10000 uM GlcN6P” value worked out at 0.000168 ± 4.5e-05 s⁻¹.
In the case of C19A C34G, the “self-cleavage kobs at 10000 uM GlcN6P” value was less than 1e-05 s⁻¹.
The value for A12C A15U G40U was 0.00018 ± 4e-05 s⁻¹.
On to C34A U47G A52U C70A, for which the “self-cleavage kobs at 10000 uM GlcN6P” value came to 0.00102 ± 0.00046 s⁻¹.
As to G9U G32C C34G U54G A64U C71A, the “self-cleavage kobs at 10000 uM GlcN6P” value was less than 1e-05 s⁻¹.
Regarding G37A C50G, the “self-cleavage kobs at 10000 uM GlcN6P” value was less than 1e-05 s⁻¹.
The value for G29U U31G G32C C67A C68G was 5.79e-05 ± 2.8e-05 s⁻¹.
Consider C10U C16G C61A C71U, for which the “self-cleavage kobs at 10000 uM GlcN6P” value was less than 1e-05 s⁻¹.
For A6U C10G G62U C67G C71G, the “self-cleavage kobs at 10000 uM GlcN6P” value amounted to 2.87e-05 ± 1.4e-05 s⁻¹.
As to C11U G38C C50A A53G G60C C68U, the “self-cleavage kobs at 10000 uM GlcN6P” value was less than 1e-05 s⁻¹.
As to A6G C8U U30A G40C A64C U65A, the “self-cleavage kobs at 10000 uM GlcN6P” value is less than 1e-05 s⁻¹.
Turning to G40A A53G C71G, the “self-cleavage kobs at 10000 uM GlcN6P” value is 0.00453 ± 0.001 s⁻¹.
Regarding C34U C58U, the “self-cleavage kobs at 10000 uM GlcN6P” value was less than 1e-05 s⁻¹.
The value for A6G U31C C34G was less than 1e-05 s⁻¹; that for U30C G32C U47G C50G A53U A64G C68A C70A was 0.000334 ± 8.3e-05 s⁻¹.
The value for U45G U55C G60A G63U was less than 1e-05 s⁻¹; that for G41A G66A C68U was 3.05e-05 ± 1.3e-05 s⁻¹; that for U54G G66U C68U was 0.000154 ± 3.1e-05 s⁻¹.
For the variant C10U U49G C61U, the “self-cleavage kobs at 10000 uM GlcN6P” value is less than 1e-05 s⁻¹.
Take U31A A33C: the “self-cleavage kobs at 10000 uM GlcN6P” value amounted to 4.61e-05 ± 1.8e-05 s⁻¹.
As for U45G A53G A64U, the “self-cleavage kobs at 10000 uM GlcN6P” value worked out at 8.08e-05 ± 1.8e-05 s⁻¹.
On to A42U U56C C71U, for which the “self-cleavage kobs at 10000 uM GlcN6P” value was 5.21e-05 ± 2e-05 s⁻¹.
On to G29U C34A G59A U65C, for which the “self-cleavage kobs at 10000 uM GlcN6P” value is less than 1e-05 s⁻¹.
A15C A39G A52G: the “self-cleavage kobs at 10000 uM GlcN6P” value was determined as 0.000495 ± 8.8e-05 s⁻¹.
Consider C16U A53G U69G, for which the “self-cleavage kobs at 10000 uM GlcN6P” value amounted to 6.58e-05 ± 1.9e-05 s⁻¹.
A14C A33U A36U G60U G62C: the “self-cleavage kobs at 10000 uM GlcN6P” value was less than 1e-05 s⁻¹.
The value for A15U G44U C61A was less than 1e-05 s⁻¹; that for A12U U31C C67G was 0.000267 ± 5.5e-05 s⁻¹; that for C11A U30C A39G was 0.000114 ± 2.3e-05 s⁻¹.
The value for A6G A14G A53C was 7.6e-05 ± 2.3e-05 s⁻¹; that for U30G G32A C71U was 0.00359 ± 0.0005 s⁻¹; that for A33G C58U C67U was less than 1e-05 s⁻¹.
Regarding U30G A48C, the “self-cleavage kobs at 10000 uM GlcN6P” value was found to be 5.11e-05 ± 1.6e-05 s⁻¹.
For the variant C10G G13A G41C C50U C67A, the “self-cleavage kobs at 10000 uM GlcN6P” value is less than 1e-05 s⁻¹.
As for A14C G37A U45A U49A C50A C58U, the “self-cleavage kobs at 10000 uM GlcN6P” value is less than 1e-05 s⁻¹.
The figure for C11U A42C U55C C70U is less than 1e-05 s⁻¹; for C16G G38C G40C U45A A52G it is less than 1e-05 s⁻¹; for G29U G32A A39U it is 0.00055 ± 8.7e-05 s⁻¹.
C10A G13U G44A: the “self-cleavage kobs at 10000 uM GlcN6P” value is less than 1e-05 s⁻¹.
The figure for G40A G51C C67U is less than 1e-05 s⁻¹; for U47A A53G U55A G66C it is 0.000375 ± 5.9e-05 s⁻¹; for A14C A52U A53C it is less than 1e-05 s⁻¹.
In the case of A12G C50U A52G U69G C71A, the “self-cleavage kobs at 10000 uM GlcN6P” value stood at 3.23e-05 ± 1.6e-05 s⁻¹.
Take C16A U30C C61G: the “self-cleavage kobs at 10000 uM GlcN6P” value is less than 1e-05 s⁻¹.
On to C8G A33U U56A, for which the “self-cleavage kobs at 10000 uM GlcN6P” value is less than 1e-05 s⁻¹.
In the case of G7C A14G A39C A48G A53U, the “self-cleavage kobs at 10000 uM GlcN6P” value was less than 1e-05 s⁻¹.
On to G26U A53G U69G, for which the “self-cleavage kobs at 10000 uM GlcN6P” value came to 5.41e-05 ± 1.5e-05 s⁻¹.
For the variant C34U G37U U46C U47A G62A, the “self-cleavage kobs at 10000 uM GlcN6P” value is less than 1e-05 s⁻¹.
The value for C11U U31C U56C was 9.92e-05 ± 2.1e-05 s⁻¹.
